Results published in patent publication US20100041875A1 (PROGENICS PHARMACEUTICAL INC AND CORNELL RESEARCH FOUNDATION, published 2010).

Target: full-length WT JR-FL (gp160) Env (JR-FL WT) (HIV-1 isolate JR-FL (subtype B), UniProt P20871 32-848)
Experiment: cell-based or functional assay

B1: MAb 2G12 (antibody, V domains shown)
VH: EVQLVESGGGLVKAGGSLILSCGVSNFRISAHTMNWVRRVPGGGLEWVASISTSSTYRDYADAVKGRFTVSRDDLEDFVYLQMHKMRVEDTAIYYCARKGSDRLSDNDPFDAWGPGTVVTVSP
VL: VVMTQSPSTLSASVGDTITITCRASQSIETWLAWYQQKPGKAPKLLIYKASTLKTGVPSRFSGSGSGTEFTLTISGLQFDDFATYHCQHYAGYSATFGQGTRVEIKR
With B1 the “neutralization of Env-pseudotyped virus infectivity (U87.CD4.CCR5 cells), mean IC50” value was 1.6 µg/mL.
